Reference: the Human Domainome abundance scans (Beltran et al. 2025)
± gives the uncertainty stated by the source.

B1: Apoptosis-associated speck-like protein containing a CARD, residues 114 to 194; numbered along this chain, Q9ULZ3 (parent)
chain: FIDQHRAALIARVTNVEWLLDALYGKVLTDEQYQAVRAEPTNPSKMRKLFSFTPAWNWTCKDLLLQALRESQSYLVEDLER

Variants of: B1
Assay: abundance fitness (aPCA) (normalised: wild type 0, dead -1); higher = more abundant; growth selection in yeast, the domain comes from the species named
Details: Homo sapiens

Abundance fitness of substitutions, site by site:
V76: P -0.632 ± 0.1, Y -0.538 ± 0.21, I -0.056 ± 0.092, D -0.312 ± 0.12, F -0.637 ± 0.21, C -0.497 ± 0.15, L -0.27 ± 0.072, W -0.611 ± 0.2, A -0.698 ± 0.08
E77: V -0.658 ± 0.08, M -0.244 ± 0.14, Q -0.124 ± 0.057, I -0.479 ± 0.18, D -0.115 ± 0.11, A -0.209 ± 0.069, H -0.365 ± 0.19, C -0.616 ± 0.18, P -0.66 ± 0.14, L -0.428 ± 0.08, Y -0.491 ± 0.14, W -0.399 ± 0.092, F -0.147 ± 0.22, G -0.481 ± 0.049, T -0.63 ± 0.19
Y74: T 0.138 ± 0.07, S 0.219 ± 0.053, H 0.027 ± 0.09, K 0.221 ± 0.098, M -0.103 ± 0.072, P -0.081 ± 0.065, E 0.249 ± 0.11, C 0.177 ± 0.084, D 0.21 ± 0.09, F -0.341 ± 0.13, G 0.151 ± 0.048, L 0.027 ± 0.043, A 0.202 ± 0.057, N 0.139 ± 0.11, R -0.031 ± 0.045, Q 0.265 ± 0.062, I -0.1 ± 0.12
A67: K -0.446 ± 0.18, Y -0.239 ± 0.13, W -0.491 ± 0.099, T -0.452 ± 0.12, L 0.033 ± 0.051, S -0.544 ± 0.086, R -0.622 ± 0.084, C -0.629 ± 0.13, Q -0.711 ± 0.14, P -0.658 ± 0.11, D -1.02 ± 0.27, V -0.484 ± 0.055, H -0.766 ± 0.33, N -0.278 ± 0.22, I -0.372 ± 0.19
Q66: S -0.322 ± 0.066, A -0.371 ± 0.049, N -0.529 ± 0.27, W -0.801 ± 0.13, M -0.252 ± 0.11, K -0.059 ± 0.089, V -0.481 ± 0.084, L -0.6 ± 0.078, T -0.323 ± 0.081, P -0.48 ± 0.085, C -0.487 ± 0.078, R -0.026 ± 0.045, E -0.148 ± 0.079, I -0.178 ± 0.16, H -0.695 ± 0.37, D -0.174 ± 0.1
L68: E -0.886 ± 0.19, M -0.449 ± 0.18, F -0.477 ± 0.17, H -0.334 ± 0.16, D -1.01 ± 0.43, G -0.764 ± 0.1, Y -0.777 ± 0.24, Q -0.876 ± 0.45, W -1.18 ± 0.26, N -0.54 ± 0.5, I 0.001 ± 0.13, V -0.527 ± 0.078, C -0.688 ± 0.21, A -0.733 ± 0.14, P -0.569 ± 0.14, S -0.838 ± 0.16
D78: P -0.687 ± 0.1, C -0.124 ± 0.11, Y -0.218 ± 0.11, A -0.286 ± 0.085, K -0.303 ± 0.073, S -0.119 ± 0.041, I -0.186 ± 0.18, W -0.141 ± 0.06, H -0.034 ± 0.12, T -0.34 ± 0.083, N -0.291 ± 0.098, V -0.45 ± 0.083, E -0.045 ± 0.094, Q -0.137 ± 0.06, L -0.167 ± 0.043, G -0.228 ± 0.058
L79: F -0.678 ± 0.16, R -0.751 ± 0.074, V -0.775 ± 0.15, Y -0.886 ± 0.18, T -0.848 ± 0.25, D -0.508 ± 0.23, S -0.914 ± 0.14, I -0.455 ± 0.24, K -0.857 ± 0.2, E -0.774 ± 0.18, N -0.688 ± 0.38, Q -0.706 ± 0.17, W -1.06 ± 0.22, M -0.668 ± 0.19, A -0.726 ± 0.11, G -0.882 ± 0.11
L75: V -0.408 ± 0.077, D -0.819 ± 0.28, P -0.695 ± 0.1, A -0.671 ± 0.092, C -0.839 ± 0.28, Q -0.651 ± 0.13, E -0.561 ± 0.14, M -0.647 ± 0.23, T -0.924 ± 0.35, W -0.868 ± 0.12, H -0.611 ± 0.23, K -0.944 ± 0.39, S -0.669 ± 0.089
L64: E -0.944 ± 0.16, Y -0.75 ± 0.2, D -0.519 ± 0.12, G -0.695 ± 0.076, S -0.853 ± 0.1, C -0.481 ± 0.15, I -0.192 ± 0.15, T -0.513 ± 0.09, P -1.02 ± 0.21, A -0.343 ± 0.065, W -0.961 ± 0.2, M 0.163 ± 0.075, V -0.123 ± 0.05, K -0.918 ± 0.2, Q -0.354 ± 0.19, F 0.2 ± 0.11
R69: I -0.195 ± 0.13, Q -0.716 ± 0.16, P -0.753 ± 0.12, N -0.581 ± 0.16, D -0.859 ± 0.4, G -0.736 ± 0.082, M -0.505 ± 0.13, Y -0.62 ± 0.09, A -0.54 ± 0.094, T -0.538 ± 0.12, H -0.517 ± 0.21, L -0.502 ± 0.071, V -0.378 ± 0.073, W -0.679 ± 0.12, F -0.636 ± 0.27, C -0.367 ± 0.13, E -0.29 ± 0.13, K 0.031 ± 0.088
